Where two headings read alike, the source gives them in different places.
Legend:
[1] = target: T1, cholera toxin B subunit (Vibrio cholerae), P01556; experiment: solid-phase ELISA, inhibition of CTB binding to GM1, peptide at its IC50 for GM1
T1 chain: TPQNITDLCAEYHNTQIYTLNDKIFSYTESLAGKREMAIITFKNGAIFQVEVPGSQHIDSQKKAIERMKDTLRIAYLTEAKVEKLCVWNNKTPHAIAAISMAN

[2] = target: T1, cholera toxin B subunit (Vibrio …); experiment: solid-phase ELISA, competition: peptide inhibits CTB binding to GM1
[3] = target: T1, cholera toxin B subunit (Vibrio …); experiment: solid-phase ELISA, inhibition of CTB binding to Lipid A, peptide at 100 pmol/mL
[4] = target: T1, cholera toxin B subunit (Vibrio …)
[5] = target: T1, cholera toxin B subunit (Vibrio …); experiment: solid-phase ELISA, inhibition of CTB binding to LOSGM1, peptide at 100 pmol/mL
[6] = target: T1, cholera toxin B subunit (Vibrio …); experiment: solid-phase ELISA, inhibition of CTB binding to F-GM1, peptide at 100 pmol/mL
[7] = target: T1, cholera toxin B subunit (Vibrio …); experiment: solid-phase ELISA, inhibition of CTB binding to GD1b, peptide at 100 pmol/mL

What does the source list for IPQVWRDWFKLP (modifications not checked) [PGM1-3]?
inhibition percent [1]: 50%; IC50 [2]: 9.6 nM

For QINTAKWWKTHF (modifications not checked) [PGM1-5], which inhibition percent [1] is on record?
The inhibition percent was 50%.

What about the IC50 [2] of the same binder?
The IC50 was 34.4 nM.

For DASKALRSSGMP (modifications not checked) [PGM1-6], which inhibition percent [3] is on record?
The inhibition percent was -0%.

And the inhibition percent [4]?
Its inhibition percent is -0%.

And the inhibition percent [5]?
The inhibition percent was -0%.

What about the inhibition percent [6] of the same binder?
The inhibition percent was -0%.

What about the inhibition percent [7] of the same binder?
Its inhibition percent is -0%.

What does the source list for FPAWFTKLYPRT (modifications not checked) [PGM1-4]?
inhibition percent [1]: 50%; IC50 [2]: 77.4 nM

YSPFHKWFPSMH (modifications not checked) [PGM1-2] was tested. Which inhibition percent [1] did it give?
The inhibition percent was 50%.

And the IC50 [2]?
The IC50 was 46.1 nM.

VSWKTWFPNLAV (modifications not checked) [PGM1-1] was tested. Which inhibition percent [1] did it give?
The inhibition percent was 50%.

And the IC50 [2]?
Its IC50 is 38 nM.
